Measured values from patent US6824971 (SLOAN KETTERING INSTITUTE FOR CANCER RESEARCH, dated 2004).
Substitutions are numbered along the chain they refer to. Numbers in names are those of the source.

T1: Recombinant Smad4/DPC4 C-terminal domain, residues 319-552 (human)
T1 chain: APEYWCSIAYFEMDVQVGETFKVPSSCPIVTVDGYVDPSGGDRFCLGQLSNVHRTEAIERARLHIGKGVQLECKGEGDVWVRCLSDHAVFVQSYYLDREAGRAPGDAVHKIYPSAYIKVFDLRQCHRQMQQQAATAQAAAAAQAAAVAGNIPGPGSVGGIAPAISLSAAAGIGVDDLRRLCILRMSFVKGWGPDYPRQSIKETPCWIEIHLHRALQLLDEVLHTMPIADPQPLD

B1: Smad4/DPC4 C-terminal domain, amino acids 294-552 (other)
chain: MPPHPGHYWPVHNELAFQPPISNHPAPEYWCSIAYFEMDVQVGETFKVPSSCPIVTVDGYVDPSGGDRFCLGQLSNVHRTEAIERARLHIGKGVQLECKGEGDVWVRCLSDHAVFVQSYYLDREAGRAPGDAVHKIYPSAYIKVFDLRQCHRQMQQQAATAQAAAAAQAAAVAGNIPGPGSVGGIAPAISLSAAAGIGVDDLRRLCILRMSFVKGWGPDYPRQSIKETPCWIEIHLHRALQLLDEVLHTMPIADPQPLD
notes: Construct for mammalian cells (pCMV5), Flag- or HA-tagged; also called Smad4(C); Smad4 C domain
B2: Smad4/DPC4 C-terminal domain Gly508Ser (other)
chain: B1 chain with G215S
notes: HA-tagged; also called G508S; developmental L3 loop mutation
B3: Smad4/DPC4 C-terminal domain Arg361Cys (other)
chain: B1 chain with R68C
notes: HA-tagged; tumor-derived trimer interface mutation; also called R361C
B4: Smad4/DPC4 C-terminal domain Val370Asp (other)
chain: B1 chain with V77D
notes: HA-tagged; tumor-derived trimer interface mutation; also called V370D
B5: Recombinant Smad4/DPC4 C-terminal domain, residues 319-552, O70437 319-552 (protein)
chain: T1 chain
B6: Smad4/DPC4 full-length Gly508Ser (other)
chain: MDNMSITNTPTSNDACLSIVHSLMCHRQGGESETFAKRAIESLVKKLKEKKDELDSLITAITTNGAHPSKCVTIQRTLDGRLQVAGRKGFPHVIYARLWRWPDLHKNELKHVKYCQYAFDLKCDSVCVNPYHYERVVSPGIDLSGLTLQSNAPSSMMVKDEYVHDFEGQPSLSTEGHSIQTIQHPPSNRASTETYSTPALLAPSESNATSTANFPNIPVASTSQPASILGGSHSEGLLQIASGPQPGQQQNGFTGQPATYHHNSTTTWTGSRTAPYTPNLPHHQNGHLQHHPPMPPHPGHYWPVHNELAFQPPISNHPAPEYWCSIAYFEMDVQVGETFKVPSSCPIVTVDGYVDPSGGDRFCLGQLSNVHRTEAIERARLHIGKGVQLECKGEGDVWVRCLSDHAVFVQSYYLDREAGRAPGDAVHKIYPSAYIKVFDLRQCHRQMQQQAATAQAAAAAQAAAVAGNIPGPGSVGGIAPAISLSAAAGIGVDDLRRLCILRMSFVKSWGPDYPRQSIKETPCWIEIHLHRALQLLDEVLHTMPIADPQPLD
notes: Full-length point mutant; also called G508S

Columns and labels:
[1] = biological target: the molecule itself; assay: co-IP of differentially tagged constructs, COS cells
Description: (§1) The full-length Smad4/DPC4 and Smad2, Smad4/DPC4-C-terminal domain encoding amino acids 294–552 (SEQ ID NO.:1) and the Smad2-C-terminal domain encoding amino acids 248–467 (SEQ ID NO.:3) were subcloned into the mammalian expression vector pCMV5. All Smad4/DPC4 point mutations were generated by a polymerase chain reaction (PCR)-based method and were confirmed by DNA sequencing. Mammalian COS-1 cells were transiently transfected with the indicated FLAG- and HA-tagged constructs by the DEAE-dextran method. Two days after transfection, cells were incubated with 200 pM TGF-β1 for one hour. Cells were lysed and subjected to immunoprecipitation followed by immunoblot as described. The wash buffers contained 150 mM NaCl for all immunoprecipitation experiments except for the homo-oligomerization assays of the full-length wild-type Smad4/DPC4 and point mutants, where 250 mM NaCl was employed to better differentiate the WT and mutant activities.
(§2) To assay for homo-oligomerization, mammalian COS-1 cells were transiently transfected with Flag-tagged wild-type Smad4/DPC4-C-terminal domain (WT) and HA-tagged WT or mutant constructs. For hetero-oligomerization, cells were transfected with Flag-tagged Smad2 C-terminal domain and HA-tagged Smad4/DPC4 C-terminal domain WT or mutant constructs together with constitutively active TGF-β type I receptor construct. […]

[2] = biological target: B1; assay: co-IP, Flag-WT C-terminal domain with HA-mutant, COS-1 cells
Description: as §1, §2

[3] = biological target: B1; assay: co-IP, Flag-WT with HA-mutant, COS-1 cells
Description: as §1, §2

[4] = biological target: T1, Recombinant Smad4/DPC4 C-terminal …; assay: crystal structure, trimer (three interfaces in total); conditions: remark: other sources report otherwise
[5] = biological target: the molecule itself; assay: gel filtration of recombinant full-length protein
Experimental: The full-length Smad4/DPC4 proteins, both wild-type and point mutants, were overexpressed at room temperature in E.coli using a pET vector (Novagen). Smad4/DPC4 protein in the soluble fraction of the E. coli lysate was partially purified by ion exchange chromatography (Q-Sepharose) and was applied to a gel filtration column (Superdex200) in 50 mM Tris, 200 mM NaCl, 5 mM DTT, pH 8.0. Aliquots from the fractions corresponding to molecular weight standards between 440 kDa and 25 kDa were taken for immunoblots with a rabbit polyclonal antibody raised against the Smad4/DPC4-C-terminal domain. The results were visualized with the ECL Western analysis and detection system (Amersham). In addition, the WT full-length Smad4/DPC4 was also cloned as a GST-fusion protein and purified to near homogeneity over a glutathione column. The fusion protein was then cleaved with Thrombin and the. Smad4/DPC4 protein was futher purified by anion-exchange chromatography (Source 15Q column).
The fractions were visualized with Coomassie staining. […] Gel filtration fractions of partially purified wild-type and mutant Smad4/DPC4 proteins were analyzed by immunoblots with anti-Smad4/DPC4 antibody.

Binder: B1
- binding result [1]: binds

Binder: B2
- binding result [2]: binds

Binder: B3
- binding result [3]: no binding

Binder: B4
- binding result [3]: no binding

Binder: B5
- buried surface area [4]: 4800 Å^2

Binder: B6
- binding result [5]: binds
